Reference: patent US20260139065A1 (Novartis, published 2026)

Target: T1, BAFF-R (B-cell activating factor receptor) (human, UniProt Q96RJ3 1-78, limits assumed)
T1 construct: also called BAFF receptor; BR3
T1 sequence (looked up): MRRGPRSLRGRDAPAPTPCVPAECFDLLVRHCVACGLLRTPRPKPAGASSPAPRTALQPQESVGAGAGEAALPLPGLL
Assay: in vitro experiments (method not given); used as a parameter of the tissue receptor occupancy model

B1: ianalumab (antibody, human IgG1, kappa, V domains shown)
VH: QVQLQQSGPGLVKPSQTLSLTCAISGDSVSSNSAAWGWIRQSPGRGLEWLGRIYYRSKWYNSYAVSVKSRITINPDTSKNQFSLQLNSVTPEDTAVYYCARYDWVPKIGVFDSWGQGTLVTVSS
VL: DIVLTQSPATLSLSPGERATLSCRASQFISSSYLSWYQQKPGQAPRLLIYGSSSRATGVPARFSGSGSGTDFTLTISSLEPEDFAVYYCQQLYSSPMTFGQGTKVEIKR
notes: also called VAY736; anti-BAFF-R antibody
A Kd of 0.046 nM was found for B1 in this work.
